In the DeepSol protein solubility set:

Assay: soluble on expression in E. coli; label from the status in PepcDB or PDB records

Sequence | soluble on expression in E. coli
MKTPDQKSCETAESSNTKYSPNLVIDGAAVSNEDVAGKVADLEYAHSFPDLVLNVEKHDDEYIKSFLLQRNWYHGMMFGKAAEKLLKWESSYIVRRSMGPTHKFLCITARVEDKYFHFQFNWNSEGWSCPILYEKFPRIPVKRYEHIYQLLDAWSLVVNQLVPISRCSMILQHSSIALENQLGRGAFGEVIKAKYVPMGATVPTEVAVKRLIGDAKRPQLVDFCNEANIMTLLEHKNIVALYGFASLQQPIMLVIEFVPGGDLRKYLQRTPNVPSKQIIKFAMEIASGMKHLSSKNVIHRDLAARNCLITKELNVKISDFGLSVNESETKMKSLKKAPIRWLSPETFSKGLFNEKTDVWSYGVLLTELMTRCAHDPLWPKNLKQVQKWIKESEHPHKIEDGDPSELKEIVDACCAKIPSVRINFREVKNRLAMLQQKKKTLELDAQKPMSPNPAIEKKKSEDRRNNMDRRNKTNRKSHTSTDRTNSNNTLTRKKSRDAGKNDRSNERKNKAKGGNLSVDGTNKSSRRKEQKGAVGISQEMVTK | not soluble
MKTPTFGKREETLTYQTRYAAYIIVSKPENNTMVLVQAPNGAYFLPGGEIEGTETKEEAIHREVLEELGISVEIGCYLGEADEYFYSNHRQTAYYNPGYFYVANTWRQLSEPLERTNTLHWVAPEEAVRLLKRGSHRWAVEKWLAAASLEHHHHHH | soluble
MKTQVAIIGAGPSGLLLGQLLHKAGIDNVILERQTPDYVLGRIRAGVLEQGMVDLLREAGVDRRMARDGLVHEGVEIAFAGQRRRIDLKRLSGGKTVTVYGQTEVTRDLMEAREASGATTVYQAAEVRLHDLQGERPYVTFERDGERLRLDCDYIAGCDGFHGISSQSIPAERLKVFERVYPFGWLGLLADTPPVSHELIYANHPRGFALCSQRSATRSRYYVQVPLTEKVEDWSDERFWTELKARLPAEVAEKLVTGPSLEKSIAPLRSFVVEPMQHGRLFLAGDAAHIVPPTGAKGLNLAASDVSTLYRLLLKAYREGRGELLERYSAICLRRIWKAERFSWWMTSVLHRFPDTDAFSQRIQQTELEYYLGSEAGLATIAENYVGLPYEEIE | soluble
MKTQVVINAKIYTGQEVVENGFIRYAETIKEIGLMAQYVSQENETVLDAAGKIVIPGMIDVHIHGGYDIDAMDANSDGLVTLGKEMLKEGVTTYFPTTMTQAPEAIEAALHAAKEAKEKGAHFEYIHLEGPYVSKKRAGAQPLEHIVPANIEQFKQWQEASGNLIKLVTYAPEEEGALEFEQYLAETGVVGTMGHTDAIDAQLKNRNITHATHLYNQMRGLHHREPGVVGHVLLNPDVMVEVITDGIHIHPDMVKLAYKLKGPKKVSVITDAMRAKGLEDGLYELGGQPVHVKDGSARLEDGTLAGSILKMDQAFRNVIEFTGCSIEDAVLMTSVNQAEEFGLNNKGALAVGKDADFVVMNEDLHVYDTVRLGIHMKEGK | not soluble
MKTSSYLLKAGVDYPTNWDEFVDWFHDEQSCTSYLYALRWPNGFICPSCSSHQSPYQLSNGKLKCHACRFQCSVTSSTLFDKTRTPMKSWFAAVWFITNQKNGVSALGVQRLLGLGSYQTAWSLMHKLRYAMVDPERDKLSGIVEVDETLIGGVIPKSSIKNQQGKRKAIVLVAVELLSPSGFGRIRLRQVESATKEHIHQFIQDVIEPGSTICSDGSQAYKQIDKKGYKHNRMVHLGSSVPAHETMAGVHRVSSLCKRWLLGTYQGAVKAKQLDYYLDEFTFRFNRRKSDSRGLLFYRLLEQAVRSKPITYQSIKNRLEHHHHHH | not soluble
MKTTLLSAVLASTLLVCAPATVLAQPATSSAPAAQGAATKTVIDSSTRILSTLDQRRAEFRGNPAALRQYINGELNKAFDRDYSARLVLGVHGRGASDADVKLFADALAENLMQRYGTALLNFEGKPTFRAKSESALPGNRGVKVSTDLLRAGNDPTPVDYLMRNSGGQWKIFDVMIEGISYVQTFKTQFDGPLREKGIAKVAADLRSGNLQVGATPANGQLEHHHHHH | soluble
MKTVALIQARLGSSRLPCKMMLSLHGLPVIDWVVRRVRRATLVDEVVVATSTQPENDILEHHLSRQGVAVFRGPEDDVLERFRLAGAAYGAEQVVRVCADNPLIWGGAIDDLIRFWRAEGCDYAYNHIPRGNLYPDGLGAETLSFALLEEVAREATLPEHREHCLSFIWAHPERYTIRTFDPADPALHRPDLKLDMDTPADYRYLALMDIHPDITPEELVAMLPRTALEHHHHHH | soluble
